From US20110014201A1

Target: Recombinant human IL-18 (Peprotech 200-18) (human) (UniProt Q14116)
Test: cell-based or functional assay

Chain of Recombinant human IL-18 (Peprotech 200-18) (human) (Q14116 37-193 limits assumed): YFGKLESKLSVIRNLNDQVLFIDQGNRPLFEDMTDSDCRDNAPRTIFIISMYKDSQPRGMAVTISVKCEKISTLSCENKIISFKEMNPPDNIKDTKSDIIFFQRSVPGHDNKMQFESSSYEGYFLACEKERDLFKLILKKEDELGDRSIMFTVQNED
Chain of recombinant IL-18BP/Fc chimera (R&D Systems, 119-BP) (O95998 31-194, change not shown): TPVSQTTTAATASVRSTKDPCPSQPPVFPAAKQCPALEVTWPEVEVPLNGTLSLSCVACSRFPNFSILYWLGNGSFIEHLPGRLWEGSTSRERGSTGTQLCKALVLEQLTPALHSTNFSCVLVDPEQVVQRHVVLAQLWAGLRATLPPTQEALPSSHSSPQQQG

## recombinant IL-18BP/Fc chimera (R&D Systems, 119-BP) (from UniProt O95998 31-194) (Fc fusion)
  ED50, inhibition of INF-γ release by KG1 cells: 0.52 nM
